{
  "source": "patent US20250002926A1",
  "target": "dCas9-24XGP41 (Streptococcus pyogenes serotype M1) (UniProt Q99ZW2)",
  "assay": "cell-based or functional assay",
  "data": [
    {"substance": "NbGP41-sfGFP-VP64-GB1 (from UniProt P06654 228-282) (VHH)", "values": [
      {"measurement": "expression of CLV3 in homozygous Setaria MoonTag lines against wild-type ME34 (RT-qPCR)", "value": 100, "unit": "fold"}
    ]}
  ]
}
